Test [1] has as its target T1, GST-Kap123 (S. cerevisiae, UniProt P40069 1-1113).
T1 construct: importin Kap123, S. cerevisiae; source: E. coli BL21, purified as previously described
T1 sequence (looked up): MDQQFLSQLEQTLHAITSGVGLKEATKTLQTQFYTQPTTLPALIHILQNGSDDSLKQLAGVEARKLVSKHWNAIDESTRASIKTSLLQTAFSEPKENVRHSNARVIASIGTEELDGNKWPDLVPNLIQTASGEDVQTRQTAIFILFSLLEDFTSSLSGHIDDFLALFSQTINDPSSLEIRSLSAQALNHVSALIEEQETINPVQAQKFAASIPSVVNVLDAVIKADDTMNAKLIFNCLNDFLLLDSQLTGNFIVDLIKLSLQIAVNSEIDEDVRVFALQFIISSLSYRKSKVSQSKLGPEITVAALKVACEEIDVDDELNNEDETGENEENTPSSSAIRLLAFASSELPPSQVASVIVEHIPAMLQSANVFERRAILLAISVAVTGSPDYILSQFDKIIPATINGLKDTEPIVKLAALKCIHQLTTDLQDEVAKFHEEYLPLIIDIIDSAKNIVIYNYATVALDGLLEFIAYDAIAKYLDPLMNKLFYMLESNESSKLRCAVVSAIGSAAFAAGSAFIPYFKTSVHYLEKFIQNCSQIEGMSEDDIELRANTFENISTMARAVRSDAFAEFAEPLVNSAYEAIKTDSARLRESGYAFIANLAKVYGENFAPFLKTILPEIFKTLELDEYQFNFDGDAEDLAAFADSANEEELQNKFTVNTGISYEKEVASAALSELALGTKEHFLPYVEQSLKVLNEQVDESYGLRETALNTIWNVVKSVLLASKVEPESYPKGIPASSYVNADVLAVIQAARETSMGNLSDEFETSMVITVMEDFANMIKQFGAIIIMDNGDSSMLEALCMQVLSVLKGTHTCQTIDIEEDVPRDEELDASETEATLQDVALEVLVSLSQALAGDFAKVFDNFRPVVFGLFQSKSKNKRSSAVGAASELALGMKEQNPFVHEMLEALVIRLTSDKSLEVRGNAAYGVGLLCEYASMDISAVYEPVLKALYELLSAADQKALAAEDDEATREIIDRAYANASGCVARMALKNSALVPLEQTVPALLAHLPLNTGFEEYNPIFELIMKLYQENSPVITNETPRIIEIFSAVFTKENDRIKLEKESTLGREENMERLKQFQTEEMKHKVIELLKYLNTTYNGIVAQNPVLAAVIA
Briefly: pull-down; GST-tagged importins immobilised on Glutathione Sepharose, incubated with buffer, purified Fap7 or Fap7:uS11 for 1 hr, in presence of 100 µl competing E. coli lysate; Coomassie and Western. Particulars: both partners purified.

Test [2] concerns the target T2, GST-Msn5 (S. cerevisiae, UniProt P52918 1-1224).
T2 construct: Msn5, S. cerevisiae; source: E. coli BL21, purified as previously described
T2 sequence (looked up): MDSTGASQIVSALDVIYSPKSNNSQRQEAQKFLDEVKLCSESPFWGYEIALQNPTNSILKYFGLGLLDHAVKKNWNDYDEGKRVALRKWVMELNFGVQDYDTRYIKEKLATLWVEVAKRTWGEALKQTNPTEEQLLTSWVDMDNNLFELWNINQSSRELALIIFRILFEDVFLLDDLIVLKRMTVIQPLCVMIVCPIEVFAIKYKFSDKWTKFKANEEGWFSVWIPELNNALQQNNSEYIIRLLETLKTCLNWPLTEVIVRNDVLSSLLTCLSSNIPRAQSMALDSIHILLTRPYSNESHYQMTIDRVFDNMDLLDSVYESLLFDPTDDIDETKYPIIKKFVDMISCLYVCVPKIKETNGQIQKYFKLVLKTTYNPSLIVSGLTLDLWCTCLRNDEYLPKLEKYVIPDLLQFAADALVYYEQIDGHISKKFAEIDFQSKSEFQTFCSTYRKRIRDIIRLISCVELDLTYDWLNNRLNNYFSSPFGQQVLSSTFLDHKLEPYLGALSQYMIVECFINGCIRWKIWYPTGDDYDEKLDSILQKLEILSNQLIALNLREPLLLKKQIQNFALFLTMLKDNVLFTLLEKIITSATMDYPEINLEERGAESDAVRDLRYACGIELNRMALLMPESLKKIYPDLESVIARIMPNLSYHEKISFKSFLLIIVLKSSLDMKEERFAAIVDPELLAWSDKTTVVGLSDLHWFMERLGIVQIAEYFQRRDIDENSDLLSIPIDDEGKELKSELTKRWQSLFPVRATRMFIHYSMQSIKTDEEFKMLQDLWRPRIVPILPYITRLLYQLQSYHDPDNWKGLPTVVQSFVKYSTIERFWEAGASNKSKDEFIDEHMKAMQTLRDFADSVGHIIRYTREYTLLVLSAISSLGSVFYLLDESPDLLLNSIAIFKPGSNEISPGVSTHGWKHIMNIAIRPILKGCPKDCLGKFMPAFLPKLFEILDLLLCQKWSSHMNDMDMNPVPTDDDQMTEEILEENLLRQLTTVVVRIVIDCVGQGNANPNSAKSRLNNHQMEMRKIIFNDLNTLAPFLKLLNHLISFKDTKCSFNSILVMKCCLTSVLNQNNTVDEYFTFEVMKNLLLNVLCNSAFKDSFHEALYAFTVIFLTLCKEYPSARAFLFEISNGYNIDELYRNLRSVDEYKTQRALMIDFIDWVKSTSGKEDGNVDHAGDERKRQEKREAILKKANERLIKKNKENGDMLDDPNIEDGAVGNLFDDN
The test is described as above. Particulars: both partners purified.

B1: Fap7 (enzyme, S. cerevisiae, UniProt Q12055 1-197, looked up)
chain: MEARRYGPNIIVTGTPGCGKSSTCEFLKNKLKDYKYYNISDFAKDNDCFEGYDEGRKSHIVDEDKLLDMLEPLLRQGNSIVDWHVNDVFPERLIDLVVVLRCDNSNLYSRLHARGYHDSKIEENLDAEIMGVVKQDAVESYEPHIVVELQSDTKEDMVSNVSRIVAWEKMWLEQHPDGVTNEYQGPRSDDEDDEDSE
notes: Fap7, conserved ATPase, S. cerevisiae (YDL166C); only the complex is printed as His6-Fap7:uS11; also called purified Fap7; Fap7 alone; source: E. coli BL21, purified
On to B1, for which the binding result in test [1] and in test [2] was “binds” throughout.

For the origin of these results see article PMC5148605, “Prefabrication of a ribosomal protein subcomplex essential for eukaryotic ribosome formation” (eLife, 2016).
